Experimental data reported in patent publication US20090042251.

T1: reduced and carboxymethylated (S54G, P55N)-RNase T1, P00651
T1 chain: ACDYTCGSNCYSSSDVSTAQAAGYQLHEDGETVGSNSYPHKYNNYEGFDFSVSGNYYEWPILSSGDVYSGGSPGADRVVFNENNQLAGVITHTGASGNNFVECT

B1: SlpA (protein)
chain: SESVQSNSAVLVHFTLKLDDGTTAESTRNNGKPALFRLGDASLSEGLEQHLLGLKVGDKTTFSLEPDAAFGVPSPDLIQYFSRREFMDAGEPEIGAIMLFTAMDGSEMPGVIREINGDSITVDFNHPLAGQTVHFDIEVLEIDPALEAHHHHHH
B2: SlyD* (SlyD 1-165) (protein)
chain: MKVAKDLVVSLAYQVRTEDGVLVDESPVSAPLDYLHGHGSLISGLETALEGHEVGDKFDVAVGANDAYGQYDENLVQRVPKDVFMGVDELQVGMRFLAETDQGPVPVEITAVEDDHVVVDGNHMLAGQNLKFNVEVVAIREATEEELAHGHVHGAHDHHHDHDHDHHHHHH
B3: hFKBP12-IF5 (protein)
chain: GVQVETISPGDGRTFPKRGQTCVVHYTGMLEDGKKFDSSRDRNKPFKFMLGKQEVIRGWEEGVAQMSVGQRAKLTISPDYAYGMPNPELVISVPREEFTKAGLEPQEGLYVMTDSGIAKIVSVGESEVSLDFNHPLAGKTLVFDVELLKLEHHHHHH
B4: SlyD* ΔIF loop (protein)
chain: MKVAKDLVVSLAYQVRTEDGVLVDESPVSAPLDYLHGHGSLISGLETALEGHEVGDKFDVAVGANDAYGATGHPGIIPPHATLKFNVEVVAIREATEEELAHGHVHGAHDHHHDHDHDHHHHHH
B5: hFKBP12-IF4 (protein)
chain: GVQVETISPGDGRTFPKRGQTAVVHYTGMLEDGKKFDSSRDRNKPFKFMLGKQEVIRGWEEGVAQMSVGQRAKLTISPDYAYGVPSPDLIQYFSRREFMDAGEPEIGAIMLFTAMDGSEMPGVIREINGDSITVDFNHPLAGQTLVFDVELLKLEHHHHHH
B6: TcFKBP18 (protein)
chain: MKVEAGDYVLFHYVGRFEDGEVFDTSYEEIARENGILVEEREYGPMWVRIGVGEIIPGLDEAIIGMEAGEKKTVTVPPEKAYGMPNPELVISVPREEFTKAGLEPQEGLYVMTDSGIAKIVSVGESEVSLDFNHPLAGKTLVFEVEVIEVKKAEEDSEA
B7: hFKBP12-IF1 (C22A) (protein)
chain: GVQVETISPGDGRTFPKRGQTAVVHYTGMLEDGKKFDSSRDRNKPFKFMLGKQEVIRGWEEGVAQMSVGQRAKLTISPDYAYGQYDENLVQRVPKDVFMGVDELQVGMRFLAETDQGPVPVEITAVEDDHVVVDGNHMLAGQNLVFDVELLKLEHHHHHH

Columns and labels:
[1] = biological target: reduced and carboxymethylated (S54G, P55N)-RNase T1 (UniProt P00651)
[2] = biological target: T1, reduced and carboxymethylated (S54G, …)

Molecule	Specificity constant kcat/KM (RCM-T1 refolding assay) [2] [M⁻¹ s⁻¹]	further results
hFKBP12	–	Specificity constant kcat/KM (RCM-T1 refolding assay) [1]: 14000 M⁻¹ s⁻¹
B1	< 1000	–
B2	680000	concentration at which refolding of RCM-T1 is twofold accelerated [2]: In the presence of as low as 2 nM SlyD* refolding of RCM-T1 is already twofold accelerated
B3	660000	–
B4	500	specificity constant relative to SlyD* [2]: amounts to only 0.07% of SlyD*
B5	850000	specificity constant (kcat/KM) [2]: 800.000 M⁻¹ s⁻¹
B6	600000	–
B7	2.5e+06	concentration sufficient to double the folding rate of RCM-T1 [2]: Less than 1 nM FKBP12-IF1 are sufficient to double the folding rate of RCM-T1; specificity constant [2]: higher than 2.5×10^6 M^-1s^-1
